These results are taken from patent US20200048631.

The test system of one data set is Gal4-VP16. As to the kind of experiment: cell_activity. Conditions: 0.5 ug Gal4 plasmid, no tTA.
For data set [1], the system named is tTA (tetracycline transactivator, TetR-VP16). The experiment in a line: cell_activity. Conditions: 0.5 ug tTA plasmid, no Gal4.
Where [2] appears, read: 0.1 without TF, 16.0 with both TFs at 0.5 ug.

On to “H1 hybrid promoter pT2U2T2U2 (TetO and UAS, CMV minimal promoter)”, for which the activity with Gal4-VP16 (<0.1 without TF, HEK293FT, synergy with tTA) is 9.2 % ON cells; in data set [1] (<0.1 without TF, HEK293FT, synergy with Gal4), 3.1 % ON cells.
For the substance “H2 hybrid promoter pT2U3 (TetO and UAS, CMV minimal promoter)”, the activity came out at 4 % ON cells with Gal4-VP16 (setting [2]) and 0.8 % ON cells in data set [1] (setting [2]).
